How the values were obtained:
[1] = target: NrnC from Agrobacterium tumefaciens (Agrobacterium tumefaciens str. C58); experiment: AUC; sedimentation velocity, 1 mg/mL At_NrnC in 25 mM Tris-HCl pH 8.0, 100 mM NaCl, without or with 5 mM MnCl2, 60,000 rpm, 20°C, Sedfit; self-association, octamer
[2] = target: NrnC from Agrobacterium tumefaciens (Agrobacterium tumefaciens str. C58); experiment: crystal structure; apo and Mn2+-soaked crystals, space group I422, two protomers in the asymmetric unit; octamer from crystal packing, interfaces analysed with PISA
[3] = target: NrnC from Agrobacterium tumefaciens (Agrobacterium tumefaciens str. C58); experiment: SEC; Superdex 200, 25 mM Tris-HCl pH 8.0, 100 mM NaCl; calibrated with Ec_RND, Tle1, conalbumin and aldolase; self-association, octamer

stoichiometry N [1]: 8
stoichiometry N [2]: 8
stoichiometry N [3]: 8
Substance: NrnC from Agrobacterium tumefaciens (enzyme)

Reference: paper PMC6330322
